Several values for one entry are separate records, joined by “and”; a condition that tells them apart may be missing. Identical values can stand only once.
Conditions: Saccharomyces cerevisiae (strain ATCC 204508 / S288c); pH 7; 25 °C; GdnHCl; CD; Tris 20 mM; NaCl 40 mM; reversible: Yes

Cytochrome c isoform 1 wild type, P00044, sequence (P00044 whole entry, canonical isoform): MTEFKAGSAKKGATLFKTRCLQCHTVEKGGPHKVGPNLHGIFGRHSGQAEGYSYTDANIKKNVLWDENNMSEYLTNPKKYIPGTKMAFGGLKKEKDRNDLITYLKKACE

Cytochrome c isoform 1 wild type, P00044
denaturant midpoint (higher = more stable): 0.49 M and 0.45 M
